{"source": "patent US20170247465A1", "about": "“COMBINATION THERAPY FOR TREATMENT OF CANCER” (OncoMed Pharmaceuticals, Inc., priority 2014, published 2017)", "molecules": {"B1": {"name": "OMP-18R5: anti-FZD antibody, IgG2, also known as vantictumab; heavy chain SEQ ID NO:3, light chain SEQ ID NO:4 (antibody)", "heavy": "EVQLVESGGGLVQPGGSLRLSCAASGFTFSHYTLSWVRQAPGKGLEWVSVISGDGSYTYYADSVKGRFTISSDNSKNTLYLQMNSLRAEDTAVYYCARNFIKYVFANWGQGTLVTVSSASTKGPSVFPLAPCSRSTSESTAALGCLVKDYFPEPVTVSWNSGALTSGVHTFPAVLQSSGLYSLSSVVTVPSSNFGTQTYTCNVDHKPSNTKVDKTVERKCCVECPPCPAPPVAGPSVFLFPPKPKDTLMISRTPEVTCVVVDVSHEDPEVQFNWYVDGVEVHNAKTKPREEQFNSTFRVVSVLTVVHQDWLNGKEYKCKVSNKGLPAPIEKTISKTKGQPREPQVYTLPPSREEMTKNQVSLTCLVKGFYPSDIAVEWESNGQPENNYKTTPPMLDSDGSFFLYSKLTVDKSRWQQGNVFSCSVMHEALHNHYTQKSLSLSPGK", "light": "DIELTQPPSVSVAPGQTARISCSGDNIGSFYVHWYQQKPGQAPVLVIYDKSNRPSGIPERFSGSNSGNTATLTISGTQAEDEADYYCQSYANTLSLVFGGGTKLTVLGQPKAAPSVTLFPPSSEELQANKATLVCLISDFYPGAVTVAWKADSSPVKAGVETTTPSKQSNNKYAASSYLSLTPEQWKSHRSYSCQVTHEGSTVEKTVAPTECS"}}, "key": {"[1]": {"system": "OMP-C28 colon tumor cells", "assay": "OMP-C28 colon tumor xenograft, staggered dosing of Wnt inhibitors and nab-paclitaxel (Example 10)", "format": "in vivo, NOD/SCID mice", "settings": "Wnt pathway inhibitor 25 mg/kg every two weeks, administered 2 days prior to nab-paclitaxel 15 mg/kg once a week, i.p.; versus single agents; FIG. 8", "procedure": "FIG. 8A-8B. Inhibition of colon tumor growth in vivo by a Wnt pathway inhibitor in combination with a taxane using a staggered dosing schedule. FIG. 8A. OMP-C28 colon tumor cells were injected subcutaneously into NOD/SCID mice. Mice were treated with control antibody (-•-), OMP-18R5 (-▴-), nab-paclitaxel (-▪-), or a combination of OMP-18R5 and nab-paclitaxel, where OMP-18R5 was administered 2 days prior to administration of nab-paclitaxel (-⋄-). FIG. 8B. OMP-C28 colon tumor cells were injected subcutaneously into NOD/SCID mice. Mice were treated with control antibody (-•-), OMP-54F28 (-▴-), nab-paclitaxel (-▪-), or a combination of OMP-54F28 and nab-paclitaxel, where OMP-54F28 was administered 2 days prior to administration of nab-paclitaxel (-⋄-). OMP-18R5, OMP-54F28 and control were administered at 25 mg/kg and nab-paclitaxel was administered at 15 mg/kg. OMP-18R5, OMP-54F28 and control were administered once every two weeks, paclitaxel was administered once a week, and all agents were administered intraperitoneally. Data is shown as tumor volume (mm^3) over days post treatment.\nSingle cell suspensions of xenograft OMP-C28 colon tumor cells were injected subcutaneously into 6-8 week old NOD/SCID mice. […] Tumor growth was monitored and tumor volumes were measured with electronic calipers at the indicated time points. Data are expressed as mean±S.E.M."}, "[2]": {"assay": "Phase 1b study of vantictumab in combination with docetaxel in NSCLC patients / Phase 1 program", "format": "in vivo", "settings": "Cohorts 1 and 2: vantictumab 5 and 10 mg/kg Day 1 of 21-day cycle with docetaxel 75 mg/m^2", "source_text": "The study is an open-label Phase 1b dose-escalation study of vantictumab in combination with docetaxel in patients with previously treated recurrent or advanced non-small cell lung cancer (NSCLC). The primary objectives of the study are to determine the safety and the maximum tolerated dose of vantictumab in combination with docetaxel. To identify a recommended Phase 2 dose for vantictumab in combination with docetaxel. The secondary objectives are to characterize the pharmacokinetics (PK) of vantictumab when administered in combination with docetaxel, to characterize the immunogenicity of vantictumab, and to make preliminary assessment of vantictumab efficacy when administered in combination with docetaxel.\nVantictumab is administered on Day 1 of each 21-day cycle. The dose levels of vantictumab for Cohorts 1 and 2 were 5 mg/kg and 10 mg/kg, respectively. For Cohorts 1 and 2, docetaxel (75 mg/m^2) is administered IV on Day 1 of each cycle. […] Patients of Cohorts 3 and 4 will be administered vantictumab at 2 mg/kg and 4 mg/kg once every 3 weeks, respectively. No dose escalation of vantictumab will be allowed within a dose cohort. A staggered dosing regimen will be evaluated in Cohorts 3 and 4. Docetaxel (75 mg/m^2) will be administered IV on Day 3 of each cycle."}, "[3]": {"system": "cancer stem cells in OMP-LU77 lung tumors", "assay": "Limiting dilution assay, cancer stem cell frequency in OMP-LU77 lung tumors (Example 7)", "format": "in vivo, NOD/SCID mice", "settings": "tumors from mice treated with vantictumab administered prior to paclitaxel; 50, 150, 500 cells implanted, 79 days; FIG. 5B", "source_text": "FIGS. 5A-5B. Cancer Stem Cell frequency. FIG. 5A. Tumor growth in mice following implantation of 50, 150, or 500 OMP-LU77 tumor cells obtained from mice that had been treated with either control antibody (Control mAb), paclitaxel (Pac), or the combination of OMP-18R5 and paclitaxel (Van+Pac). FIG. 5B. Cancer stem cell (CSC) frequency in OMP-LU77 lung tumors following treatment with control antibody (Control mAb), paclitaxel, or a combination of OMP-18R5 antibody and paclitaxel (Van+Pac) as determined by limiting dilution analysis.\nLimiting dilution assays (LDAs) can be used to assess the effect of Wnt pathway inhibitors on solid tumor cancer stem cells and/or on the tumorigenicity of a tumor. The assays can be used to determine the frequency of cancer stem cells in tumors from animals treated with the Wnt pathway inhibitor and to compare that frequency to the frequency of cancer stem cells in tumors from control animals. […]\nFor the LDA, the tumor cells in the suspension were harvested, counted, and appropriate cell doses (50, 150, and 500 cells) were injected subcutaneously in NOD/SCID mice (10 mice per cell dose per treatment group). […] The percentage of mice with detectable tumors was determined in all treatment groups and compared to the percentage of mice with detectable tumors in the controls. […]"}}, "data": [{"molecule": "B1", "values": [{"measurement": "inhibition of tumor growth (tumor volume)", "setting": "[1]", "result": "inhibited tumor growth of the OMP-C28 colon tumor cells to a greater extent than either the Wnt pathway inhibitors or nab-paclitaxel alone"}, {"measurement": "adverse events leading to discontinuation", "setting": "[2]", "result": "fragility fractures observed"}, {"measurement": "cancer stem cell frequency (limiting dilution analysis, L-Calc)", "setting": "[3]", "result": "significantly decreased the cancer stem frequency"}]}]}
